This is an account of results in patent US20150183820A1.

Where two headings read alike, the source gives them in different places.

For experiment [1], the target named is gamma-globulin derived from human serum (Wako Pharmaceuticals). Put plainly: pH gradient affinity chromatography, commercial comparison column.
In experiment [2] the target is Fc region of human immunoglobulin (human). The experiment in a line: SPR, Fc on CM5 chip, pH 7.4, 1:1 Langmuir.
For experiment [3] the target is unchanged. The experiment in a line: SPR, Fc on CM4 chip, pH 4.5, 1:1 Langmuir.
In experiment [4] the target is IgG1 type humanized monoclonal antibody. The experiment in a line: SPR, IgG1 antibody amine-coupled on CM-5 chip (5000 RU), pH 7.4, 25 C, 1:1 Langmuir.
In experiment [5] the target is Fc region of human immunoglobulin (human). Put plainly: SPR, Fc on CM4 chip, pH 4.5.
For experiment [6] the target is unchanged. Put plainly: SPR, Fc on CM5 chip, pH 7.4.
For experiment [7], the target named is gamma-globulin derived from human serum (Wako Pharmaceuticals). The experiment in a line: pH gradient affinity chromatography, DSC-activated immobilized column.
In experiment [8] the target is human IgG3. The experiment in a line: pH gradient affinity chromatography, Epoxy-activated Sepharose 6B immobilized column.
For experiment [9], the target named is human IgG3. The experiment in a line: pH gradient affinity chromatography, SulfoLink immobilized column.
Experiment [10] has as its target IgG1 type humanized monoclonal antibody. The experiment is described as above.
The target is the same in experiment [11]. The experiment in a line: SPR, IgG1 antibody amine-coupled on CM-5 chip, pH 7.4.
Experiment [12] shares this target.
Experiment [13] shares this target. The experiment in a line: pH gradient affinity chromatography, binder immobilized on streptavidin column.
For experiment [14], the target named is human immunoglobulin IgG. Put plainly: SPR, binder on SA chip, dissociation at pH 4.0, 1:1 Langmuir.
Experiment [15] concerns the target ChromPure Human IgG, Fc Fragment (human). Put plainly: stepwise pH affinity chromatography, binder immobilized on streptavidin column.
For experiment [16], the target named is human immunoglobulin IgG. The experiment in a line: SPR, binder on SA chip, 1 uM IgG, dissociation in 10 mM sodium acetate pH 4.0.
Experiment [17] addresses human immunoglobulin IgG. The experiment in a line: SPR, binder on SA chip, dissociation at pH 4.0.
Experiment [18] addresses IgG1 type humanized monoclonal antibody. The experiment in a line: pH gradient affinity chromatography, Epoxy-activated Sepharose 6B immobilized column.

On to “Sepharose 4 Fast Flow column (GE Healthcare)”, for which the elution peak pH in [1] came to 3.2 pH.

B1: M-PG07 (designed binder)
chain: MDTYKLILNGKTLKGETTTEAVDAATAEKVFKQYANEHGVDGEWTYDPETKTFTVTE
B1: the Kd in [2] was determined as 290 nM; in experiment [3], 230 nM.

B2: M-PG19 (designed binder)
chain: MDTYKLILNGKTLKGETTTEAVDAATAEKVFKHYANEHGVHGHWTYDPETKTFTVTE
In the case of B2, the dissociation constant Kd in [2] is 43 nM; in experiment [3], 1000 nM; in [4] it was 19 nM. The affinity in the acidic region against M-PG01 in experiment [5] is 0.6 times. In experiment [6], the avidity in the neutral region against M-PG01 turned out to be 11 times.

B3: CGB19H-3D (designed binder)
chain: MAYYDPETGTWYSGGRDTYKLILNGKTLKGETTTEAVDAATAEKVFKHYANEHGVHGHWTYDPETKTFTVTERPEVIDASELTPAVDTYKLILNGKTLKGETTTEAVDAATAEKVFKHYANEHGVHGHWTYDPETKTFTVTERPEVIDASELTPAVDTYKLILNGKTLKGETTTEAVDAATAEKVFKHYANEHGVHGHWTYDPETKTFTVTERPEVIDASELTPAVGGGGCHHHHHH
For B3, the elution peak pH stood at 3.6 pH in experiment [7]; 4.9 pH with human IgG3 [8]; 5.2 pH in the experiment with human IgG3 [9]; 4.3 pH in experiment [10]; 4.3 pH in [12]. Also, in experiment [4], the equilibrium dissociation constant (Kd) was 0.1 nM. In addition, the avidity improvement against the single domain-type M-PG19 in experiment [11] amounted to 190 fold. In addition, the difference of the dissociation rate constants against M-PG19 in experiment [11] was 370 times.

B4: OXADac-PG01 (protein)
chain: MGAGTPVTAPLAGTIWKVLASEGQTVAAGEVLLILEAMKMETEIRAAQAGTVRGIAVKAGDAVAVGDTLMTLAGSGSDLYDDDDKGIITSLYKKAGSAAAPFTDTYKLILNGKTLKGETTTEAVDAATAEKVFKQYANDNGVDGEWTYDDATKTFTVTE
B4 registered a value of the elution peak of antibody in pH-gradient chromatography in experiment [13] of 3.18 pH. In the experiment with human immunoglobulin IgG [14], this molecule yielded a koff of 4.2e-05 s⁻¹. In experiment [15], the recovery ratio of antibody in step-wise pH chromatography at pH 4.0 is 10%. Besides, in the experiment with human immunoglobulin IgG [16], the ratio of the remaining amount of antibody by SPR sensorgram at pH 4.0 was 99%.

B5: OXADac-PG17 (designed binder)
chain: MGAGTPVTAPLAGTIWKVLASEGQTVAAGEVLLILEAMKMETEIRAAQAGTVRGIAVKAGDAVAVGDTLMTLAGSGSDLYDDDDKGIITSLYKKAGSAAAPFTDTYKLILNGKRLKGETITEAVDAATAEKVFKQYANEHGVDGEWTYDPETKTFTVTE
On to B5, for which, in experiment [13], the value of the elution peak of antibody in pH-gradient chromatography was found to be 3.27 pH. In the experiment with human immunoglobulin IgG [14], this molecule came in with a koff of 0.032 s⁻¹. The ratio of the remaining amount of antibody by SPR sensorgram at pH 4.0 with human immunoglobulin IgG [16] is 86%.

B6: OXADac-PG13 (designed binder)
chain: MGAGTPVTAPLAGTIWKVLASEGQTVAAGEVLLILEAMKMETEIRAAQAGTVRGIAVKAGDAVAVGDTLMTLAGSGSDLYDDDDKGIITSLYKKAGSAAAPFTDTYKLILNGKTLKGETTTEAVDAATAEKVFKQYANEHGVHGEWTYDPETKTFTVTE
In [13], B6 displayed a value of the elution peak of antibody in pH-gradient chromatography of 3.56 pH. Besides, the koff with human immunoglobulin IgG [14] came out at 0.06 s⁻¹. Also, the ratio of the remaining amount of antibody by SPR sensorgram at pH 4.0 with human immunoglobulin IgG [16] is 64%.

B7: OXADac-PG15 (designed binder)
chain: MGAGTPVTAPLAGTIWKVLASEGQTVAAGEVLLILEAMKMETEIRAAQAGTVRGIAVKAGDAVAVGDTLMTLAGSGSDLYDDDDKGIITSLYKKAGSAAAPFTDTYKLILNGKRLKGETTTEAVDAATAEKVFKQYANEHGVDGEWTYDPETKTFTVTE
Take B7: the off-rate (koff) with human immunoglobulin IgG [14] is 0.00044 s⁻¹. In addition, the ratio of the remaining amount of antibody by SPR sensorgram at pH 4.0 in the experiment with human immunoglobulin IgG [16] worked out at 90%.

B8: OXADac-PG16 (designed binder)
chain: MGAGTPVTAPLAGTIWKVLASEGQTVAAGEVLLILEAMKMETEIRAAQAGTVRGIAVKAGDAVAVGDTLMTLAGSGSDLYDDDDKGIITSLYKKAGSAAAPFTDTYKLILNGKTLKGETITEAVDAATAEKVFKQYANEHGVDGEWTYDPETKTFTVTE
In the experiment with human immunoglobulin IgG [14], B8 showed a koff of 0.00013 s⁻¹. The ratio of the remaining amount of antibody by SPR sensorgram at pH 4.0 with human immunoglobulin IgG [16] was 94%.

B9: OXADac-PG20 (designed binder)
chain: MGAGTPVTAPLAGTIWKVLASEGQTVAAGEVLLILEAMKMETEIRAAQAGTVRGIAVKAGDAVAVGDTLMTLAGSGSDLYDDDDKGIITSLYKKAGSAAAPFTDTYKLILNGKTLKGETTTEAVHAATAEKVFKHYANEHGVHGHWTYDPETKTFTVTE
In [13], B9 registered an elution pH difference against the wild-type (OXADac-PG01) of 1.1 pH points and a value of the elution peak of antibody in pH-gradient chromatography of 4.29 pH. In [15], the elution rate at pH 4 against the wild-type (OXADac-PG01) was 7 times and the recovery ratio of antibody in step-wise pH chromatography at pH 4.0 was 71%. Besides, the ratio of the remaining amount of antibody by SPR sensorgram at pH 4.0 in the experiment with human immunoglobulin IgG [16] was determined as 58%.

B10: OXADac-PG07 (designed binder)
chain: MGAGTPVTAPLAGTIWKVLASEGQTVAAGEVLLILEAMKMETEIRAAQAGTVRGIAVKAGDAVAVGDTLMTLAGSGSDLYDDDDKGIITSLYKKAGSAAAPFTDTYKLILNGKTLKGETTTEAVDAATAEKVFKQYANEHGVDGEWTYDPETKTFTVTE
In the case of B10, the koff in the experiment with human immunoglobulin IgG [14] was 0.00011 s⁻¹. Moreover, the ratio of the remaining amount of antibody by SPR sensorgram at pH 4.0 with human immunoglobulin IgG [16] was 93%.

B11: OXADac-PG19 (designed binder)
chain: MGAGTPVTAPLAGTIWKVLASEGQTVAAGEVLLILEAMKMETEIRAAQAGTVRGIAVKAGDAVAVGDTLMTLAGSGSDLYDDDDKGIITSLYKKAGSAAAPFTDTYKLILNGKTLKGETTTEAVDAATAEKVFKHYANEHGVHGHWTYDPETKTFTVTE
As to B11, in experiment [13], the value of the elution peak of antibody in pH-gradient chromatography amounted to 4.04 pH. In the experiment with human immunoglobulin IgG [17], this molecule displayed an increase of the dissociation rate constant against the wild-type (OXADac-PG01) (orders of magnitude) of 3 and a percent of adsorbed IgG dissociated at pH 4.0 of 60%. This molecule also returned a koff with human immunoglobulin IgG [14] of 0.27 s⁻¹. Further, in experiment [15], the elution rate at pH 4 against the wild-type (OXADac-PG01) worked out at 7 times and the recovery ratio of antibody in step-wise pH chromatography at pH 4.0 was 88%. Moreover, the ratio of the remaining amount of antibody by SPR sensorgram at pH 4.0 with human immunoglobulin IgG [16] stood at 38%.

B12: OXADac-PG14 (designed binder)
chain: MGAGTPVTAPLAGTIWKVLASEGQTVAAGEVLLILEAMKMETEIRAAQAGTVRGIAVKAGDAVAVGDTLMTLAGSGSDLYDDDDKGIITSLYKKAGSAAAPFTDTYKLILNGKTLKGETTTEAVDAATAEKVFKQYANEHGVDGHWTYDPETKTFTVTE
As to B12, in the experiment with human immunoglobulin IgG [14], the koff was 0.04 s⁻¹. The ratio of the remaining amount of antibody by SPR sensorgram at pH 4.0 in the experiment with human immunoglobulin IgG [16] came to 71%.

B13: CGB01H-3D (protein)
chain: MAYYDPETGTWYSGGRDTYKLILNGKTLKGETTTEAVDAATAEKVFKQYANDNGVDGEWTYDDATKTFTVTERPEVIDASELTPAVDTYKLILNGKTLKGETTTEAVDAATAEKVFKQYANDNGVDGEWTYDDATKTFTVTERPEVIDASELTPAVDTYKLILNGKTLKGETTTEAVDAATAEKVFKQYANDNGVDGEWTYDDATKTFTVTERPEVIDASELTPAVGGGGCHHHHHH
Turning to B13, the elution peak pH is 3.4 pH with human IgG3 [8] and 3.3 pH in experiment [18].
